Source: paper PMC3477299 (ACS chemical biology, 2012)
Where two headings read alike, the source gives them in different places.

Experiments:
[1] = molecular target: T1, N-terminal His-tagged Human 4RON tau (human, UniProt P10636-6 1-383); assay: ELISA
[2] = molecular target: T1, N-terminal His-tagged Human 4RON tau; assay: ELISA; remark: listed apart in the source

B1: Hsp90β (HSP90AB1) (natural protein)
chain: not shown
Question: How did the IC50 [1] turn out when B1 was run?
Answer: 3 µM

Question: And the IC50 [2]?
Answer: 59 µM
